Here are results for 23 substances from patent US20050153894A1, “p21 peptides” (Cyclacel Limited, priority 1999, published 2005).

Square brackets hold non-standard residues; d marks the D form. Ends that are not written are not given here. Phe(4-F) = N[C@@H](Cc1ccc(F)cc1)C(=O)O; 1Nal = N[C@@H](Cc1cccc2ccccc12)C(=O)O; 2Nal = N[C@@H](Cc1ccc2ccccc2c1)C(=O)O; Tic = O=C(O)[C@@H]1Cc2ccccc2CN1; Cha = N[C@@H](CC1CCCCC1)C(=O)O; Phg = N[C@H](C(=O)O)c1ccccc1; Nle = CCCC[C@H](N)C(=O)O; Nva = CCC[C@H](N)C(=O)O; Abu = CC[C@H](N)C(=O)O; Pse = Phenylserine Where only a bound is given, the exact number is not on record here.

One assay deals with CDK2/cyclin A (Homo sapiens, UniProt P20248). In words: CDK2/cyclin A kinase assay, substrate pRb(773-928). Format: biochemical. To be noted: pRb substrate, [ATP] = 100 μM. From the text: Reactions were stopped on ice, followed by filtration through p81 filterplates (Whatman Polyfiltronics, Kent, UK).
The next assay deals with Cyclin A (Homo sapiens, UniProt P20248). In words: Cyclin A binding assay, immobilised biotinyl-Ahx-[…]NH2. On the procedure: This was added to each well (100 μL). The plate was incubated for 1 h at room temperature with constant shaking. The plate was washed once quickly with TBS/BSA buffer (200 μL), followed by three more washes with TBS/BSA buffer (200 μL) for 5 min each. Serial dilutions of test peptides were prepared in a new plate (50 μL in each well). Cyclin A was diluted to 5 μg/50 μL with TBS/BSA buffer and this was then added to each well (50 μL). The solutions were mixed thoroughly with a pipette (5-6 times), before being incubated for 30 min at room temperature. This reaction mixture was then transferred to the biotinylated peptide: streptavidin-coated plate and incubated for 1 h at room temperature with constant shaking. The plate was washed once quickly with TBS/BSA buffer (200 μL), followed by three more washes with TBS/BSA buffer (200 μL) for 5 min each. The cyclin A antibody (Santa Cruz polyclonal) solution was diluted 1:200 with TBS/BSA buffer and this was then added to each well of the plate (100 μL. The plate was incubated for 1 h at room temperature with constant shaking. The plate was washed once quickly with TBS/BSA buffer (200 μl), followed by three more washes with TBS/BSA buffer (200 μL) for 5 min each. The anti-rabbit secondary antibody (goat anti-rabbit IgG peroxidase conjugate) was diluted 1:10,000 with TBS/BSA and this was then added to each well of the plate (100 μL). The plate was incubated for 1 h at room temperature with constant shaking. The plate was washed once quickly with TBS/BSA buffer (200 μL), followed by three more washes with TBS/BSA buffer (200 μL) for 5 min each. To each well was added the TMB-ELISA reagent (Pierce 1-Step™ Turbo TMB-ELISA; 100 μL) and the plate incubated for 1 min with constant shaking. The reaction was then quenched by the addition of 2 M aqueous H2SO4 (100 μL, each well). The UV absorbance of the each solution was measured spectrophotometrically at 450 nm. IC50 values were calculated from dose-response curves.
Cyclin A, sequence (P20248 whole entry): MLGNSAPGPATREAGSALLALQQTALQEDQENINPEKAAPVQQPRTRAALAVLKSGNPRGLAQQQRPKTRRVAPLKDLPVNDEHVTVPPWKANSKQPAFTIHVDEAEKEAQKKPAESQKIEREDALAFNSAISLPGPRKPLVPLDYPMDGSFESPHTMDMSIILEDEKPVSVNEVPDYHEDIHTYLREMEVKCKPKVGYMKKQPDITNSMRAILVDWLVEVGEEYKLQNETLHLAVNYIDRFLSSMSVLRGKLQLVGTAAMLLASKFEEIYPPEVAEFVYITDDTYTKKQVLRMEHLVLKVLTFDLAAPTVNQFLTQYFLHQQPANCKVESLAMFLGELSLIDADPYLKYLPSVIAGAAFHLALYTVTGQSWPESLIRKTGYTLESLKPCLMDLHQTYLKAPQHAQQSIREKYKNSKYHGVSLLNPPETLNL

The mark [1] stands for this setting: Ile158 substitutions, relative to H-His-Ala-Lys-Arg-Arg-Leu-Ile-Phe-NH2 (=1).
[2] abbreviates: Phe159 substitutions, relative to H-His-Ala-Lys-Arg-Arg-Leu-Ile-Phe-NH2 (=1).
Setting [3] is: Ala153 substitutions, relative to H-His-Ala-Lys-Arg-Arg-Leu-Ile-Phe-NH2 (=1).
The mark [4] stands for this setting: Arg156 substitutions, relative to H-His-Ala-Lys-Arg-Arg-Leu-Ile-Phe-NH2 (=1).
[5] abbreviates: Lys154 substitutions, relative to H-His-Ala-Lys-Arg-Arg-Leu-Ile-Phe-NH2 (=1).
The mark [6] stands for this setting: Arg155 substitutions, relative to H-His-Ala-Lys-Arg-Arg-Leu-Ile-Phe-NH2 (=1).

For “H-His-Ala-Lys-Arg-Arg-Leu-Cha-Phe-NH2 (H-HAKRRL[Cha]F-NH2; SMILES CC(C)C[C@H](NC(=O)[C@H](CCCNC(=N)N)NC(=O)[C@H](CCCNC(=N)N)NC(=O)[C@H](CCCCN)NC(=O)[C@H](C)NC(=O)[C@@H](N)Cc1c[nH]cn1)C(=O)N[C@@H](CC1CCCCC1)C(=O)N[C@@H](Cc1ccccc1)C(N)=O)”, the “Relative activity Kinase Inhibition” value with CDK2/cyclin A (setting [1]) is recorded as 0.3. Further, the “Relative activity Cyclin A Binding” value in the assay with Cyclin A (setting [1]) was 0.5.
Regarding “H-His-Ala-Lys-Arg-Arg-Leu-Ile-1Nap-NH2 (H-HAKRRLI[1Nal]-NH2; SMILES CC[C@H](C)[C@H](NC(=O)[C@H](CC(C)C)NC(=O)[C@H](CCCNC(=N)N)NC(=O)[C@H](CCCNC(=N)N)NC(=O)[C@H](CCCCN)NC(=O)[C@H](C)NC(=O)[C@@H](N)Cc1c[nH]cn1)C(=O)N[C@@H](Cc1cccc2ccccc12)C(N)=O)”, the “Relative activity Kinase Inhibition” value with CDK2/cyclin A (setting [2]) worked out at 0.2. In the assay with Cyclin A (setting [2]), the “Relative activity Cyclin A Binding” value is given as less than 0.1.
Turning to “H-His-Val-Lys-Arg-Arg-Leu-Ile Phe-NH2 (H-HVKRRLIF-NH2)”, the “Relative activity Kinase Inhibition” value with CDK2/cyclin A (setting [3]) amounted to 2. Also, the “Relative activity Cyclin A Binding” value with Cyclin A (setting [3]) is on record as 1.7.
As for “H-His-Ala-Lys-Arg-Ser-Leu-Ile Phe-NH2 (H-HAKRSLIF-NH2)”, the “Relative activity Kinase Inhibition” value with CDK2/cyclin A (setting [4]) was determined as 0.7. In addition, the “Relative activity Cyclin A Binding” value in the assay with Cyclin A (setting [4]) was found to be 0.2.
As for “H-His-Ala-Lys-Arg-Arg-Leu-Ile-Tic-NH2 (H-HAKRRLI[Tic]-NH2; SMILES CC[C@H](C)[C@H](NC(=O)[C@H](CC(C)C)NC(=O)[C@H](CCCNC(=N)N)NC(=O)[C@H](CCCNC(=N)N)NC(=O)[C@H](CCCCN)NC(=O)[C@H](C)NC(=O)[C@@H](N)Cc1c[nH]cn1)C(=O)N1Cc2ccccc2C[C@H]1C(N)=O)”, the “Relative activity Kinase Inhibition” value in the assay with CDK2/cyclin A (setting [2]) is 0.3. For the same substance, in the assay with Cyclin A (setting [2]), the “Relative activity Cyclin A Binding” value is listed as less than 0.1.
With HAKRRLFF-NH2, the “Relative activity Kinase Inhibition” value at CDK2/cyclin A (setting [1]) is 0.4. Besides, at Cyclin A (setting [1]), the “Relative activity Cyclin A Binding” value is on record as 0.4.
Regarding “H-His-Phg-Lys-Arg-Arg-Leu-Ile Phe-NH2 (H-H[Phg]KRRLIF-NH2; not fully specified; printed as H-His-Phg-Lys-Arg-Arg-Leu-Ile Phe-NH2)”, the “Relative activity Kinase Inhibition” value in the assay with CDK2/cyclin A (setting [3]) is reported as less than 0.1. Moreover, the “Relative activity Cyclin A Binding” value with Cyclin A (setting [3]) was less than 0.1.
Take “H-His-Abu-Lys-Arg-Arg-Leu-Ile Phe-NH2 (H-H[Abu]KRRLIF-NH2; SMILES CC[C@H](NC(=O)[C@@H](N)Cc1c[nH]cn1)C(=O)N[C@@H](CCCCN)C(=O)N[C@@H](CCCNC(=N)N)C(=O)N[C@@H](CCCNC(=N)N)C(=O)N[C@@H](CC(C)C)C(=O)N[C@H](C(=O)N[C@@H](Cc1ccccc1)C(N)=O)[C@@H](C)CC)”: the “Relative activity Kinase Inhibition” value in the assay with CDK2/cyclin A (setting [3]) was 5. Further, the “Relative activity Cyclin A Binding” value in the assay with Cyclin A (setting [3]) amounted to 1.3.
Turning to “H-His-Ala-Lys-Arg-Arg-Leu-Ile-pFPhe-NH2 (H-HAKRRLI[Phe(4-F)]-NH2; SMILES CC[C@H](C)[C@H](NC(=O)[C@H](CC(C)C)NC(=O)[C@H](CCCNC(=N)N)NC(=O)[C@H](CCCNC(=N)N)NC(=O)[C@H](CCCCN)NC(=O)[C@H](C)NC(=O)[C@@H](N)Cc1c[nH]cn1)C(=O)N[C@@H](Cc1ccc(F)cc1)C(N)=O)”, the “Relative activity Kinase Inhibition” value in the assay with CDK2/cyclin A (setting [2]) was determined as 1. In addition, the “Relative activity Cyclin A Binding” value with Cyclin A (setting [2]) is recorded as 5.
“H-His-Ile-Lys-Arg-Arg-Leu-Ile Phe-NH2 (H-HIKRRLIF-NH2)”: the “Relative activity Kinase Inhibition” value with CDK2/cyclin A (setting [3]) came out at 0.5. In the assay with Cyclin A (setting [3]), the “Relative activity Cyclin A Binding” value was determined as 0.2.
With HAKRRLAF-NH2, the “Relative activity Kinase Inhibition” value at CDK2/cyclin A (setting [1]) was determined as 0.3. Moreover, the “Relative activity Cyclin A Binding” value on Cyclin A (setting [1]) is on record as 0.8.
Take HAKRRLLF-NH2: the “Relative activity Kinase Inhibition” value at CDK2/cyclin A (setting [1]) is listed as 1.2. Also, the “Relative activity Cyclin A Binding” value at Cyclin A (setting [1]) was found to be 0.6.
Regarding “H-His-Gly-Lys-Arg-Arg-Leu-Ile Phe-NH2 (H-HGKRRLIF-NH2)”, in the assay with CDK2/cyclin A (setting [3]), the “Relative activity Kinase Inhibition” value was found to be 0.1. Further, in the assay with Cyclin A (setting [3]), the “Relative activity Cyclin A Binding” value is 0.1.
As to “H-His-Ala-Lys-Arg-Arg-Leu-Nva Phe-NH2 (H-HAKRRL[Nva]F-NH2; SMILES CCC[C@H](NC(=O)[C@H](CC(C)C)NC(=O)[C@H](CCCNC(=N)N)NC(=O)[C@H](CCCNC(=N)N)NC(=O)[C@H](CCCCN)NC(=O)[C@H](C)NC(=O)[C@@H](N)Cc1c[nH]cn1)C(=O)N[C@@H](Cc1ccccc1)C(N)=O)”, in the assay with CDK2/cyclin A (setting [1]), the “Relative activity Kinase Inhibition” value was found to be 0.2. For the same substance, in the assay with Cyclin A (setting [1]), the “Relative activity Cyclin A Binding” value is 0.6.
For “H-His Ala-Lys-Arg-Arg-Leu-Val-Phe-NH2 (H-HAKRRLVF-NH2)”, in that order: 0.8 and 1.5.
As to “H-His-Ala-Nle-Arg-Arg-Leu-Ile Phe-NH2 (H-HA[Nle]RRLIF-NH2; SMILES CCCC[C@H](NC(=O)[C@H](C)NC(=O)[C@@H](N)Cc1c[nH]cn1)C(=O)N[C@@H](CCCNC(=N)N)C(=O)N[C@@H](CCCNC(=N)N)C(=O)N[C@@H](CC(C)C)C(=O)N[C@H](C(=O)N[C@@H](Cc1ccccc1)C(N)=O)[C@@H](C)CC)”, in the assay with CDK2/cyclin A (setting [5]), the “Relative activity Kinase Inhibition” value is recorded as 03. In the assay with Cyclin A (setting [5]), the “Relative activity Cyclin A Binding” value is listed as 0.2.
For “H-His-Nva-Lys-Arg-Arg.Leu-Ile Phe.NH2 (H-H[Nva]KRRLIF-NH2; SMILES CCC[C@H](NC(=O)[C@@H](N)Cc1c[nH]cn1)C(=O)N[C@@H](CCCCN)C(=O)N[C@@H](CCCNC(=N)N)C(=O)N[C@@H](CCCNC(=N)N)C(=O)N[C@@H](CC(C)C)C(=O)N[C@H](C(=O)N[C@@H](Cc1ccccc1)C(N)=O)[C@@H](C)CC)”, the “Relative activity Kinase Inhibition” value with CDK2/cyclin A (setting [3]) is listed as less than 0.1. For the same substance, in the assay with Cyclin A (setting [3]), the “Relative activity Cyclin A Binding” value was less than 0.1.
Consider “H-His-Ala-Lys-Arg-Arg-Leu-Ile-2Nap-NH2 (H-HAKRRLI[2Nal]-NH2; SMILES CC[C@H](C)[C@H](NC(=O)[C@H](CC(C)C)NC(=O)[C@H](CCCNC(=N)N)NC(=O)[C@H](CCCNC(=N)N)NC(=O)[C@H](CCCCN)NC(=O)[C@H](C)NC(=O)[C@@H](N)Cc1c[nH]cn1)C(=O)N[C@@H](Cc1ccc2ccccc2c1)C(N)=O)”, for which the “Relative activity Kinase Inhibition” value in the assay with CDK2/cyclin A (setting [2]) is given as 1.2. For the same substance, in the assay with Cyclin A (setting [2]), the “Relative activity Cyclin A Binding” value is reported as 0.7.
On the same counts, the results for “H-His-Ala-Lys-Arg-Arg-Leu-Ile-Cha-NH2 (H-HAKRRLI[Cha]-NH2; SMILES CC[C@H](C)[C@H](NC(=O)[C@H](CC(C)C)NC(=O)[C@H](CCCNC(=N)N)NC(=O)[C@H](CCCNC(=N)N)NC(=O)[C@H](CCCCN)NC(=O)[C@H](C)NC(=O)[C@@H](N)Cc1c[nH]cn1)C(=O)N[C@@H](CC1CCCCC1)C(N)=O)” are less than 0.1 and less than 0.1.
On the same counts, the results for HAKRRLIK-NH2 are less than 0.1 and less than 0.1.
Take 110 (H-HAKRRLI[Pse]-OH) [compound 110]: the “Relative activity Kinase Inhibition” value with CDK2/cyclin A (relative to H-His-Ala-Lys-Arg-Arg-Leu-Ile-Phe-NH2 (SEQ ID No. 36) = 1, CDK2/cyclin A kinase assay) was less than 0.1. The “Relative activity Cyclin A Binding” value with Cyclin A (relative to SEQ ID No. 36 = 1, competitive cyclin A binding, immobilised biotinyl-Ahx-His-Ala-Lys-Arg-Arg-Leu-Ile-Phe-NH2) is given as 0.2.
On to “H-His-Ala-Lys-Nle-Arg-Leu-Ile Phe-NH2 (H-HAKHRLIF-NH2; not fully specified (residue 4); printed as H-His-Ala-Lys-Nle-Arg-Leu-Ile Phe-NH2)”, for which, in the assay with CDK2/cyclin A (setting [6]), the “Relative activity Kinase Inhibition” value is recorded as less than 0.1. Also, the “Relative activity Cyclin A Binding” value with Cyclin A (setting [6]) is given as less than 0.1.
As to “H-His-Ala-Lys-Lys-Arg-Leu-Ile Phe-NH2 (H-HAKKRLIF-NH2)”, the “Relative activity Kinase Inhibition” value with CDK2/cyclin A (setting [6]) was 0.8. Besides, in the assay with Cyclin A (setting [6]), the “Relative activity Cyclin A Binding” value was 0.1.
